B1: EDAQGHIW (SEQ ID NO: 331) (peptide)
peptide: EDAQGHIW
B2: EENDQSTHKW (SEQ ID NO: 483) (peptide)
peptide: EENDQSTHKW
B3: AEMLESVIKNY (SEQ ID NO: 321) (peptide)
peptide: AEMLESVIKNY
B4: EEVNYINTF (SEQ ID NO: 351) (peptide)
peptide: EEVNYINTF
B5: RELQHEHSL (SEQ ID NO: 481) (peptide)
peptide: RELQHEHSL
B6: YEIEARNQVF (SEQ ID NO: 327) (peptide)
peptide: YEIEARNQVF
B7: RELENCFQIQ (SEQ ID NO: 357) (peptide)
peptide: RELENCFQIQ
B8: TEDPTILRI (SEQ ID NO: 354) (peptide)
peptide: TEDPTILRI
B9: SEKGVIQVY (SEQ ID NO: 362) (peptide)
peptide: SEKGVIQVY
B10: SEGSEPALLHSW (SEQ ID NO: 338) (peptide)
peptide: SEGSEPALLHSW
B11: AEVPTGVII (SEQ ID NO: 360) (peptide)
peptide: AEVPTGVII
B12: EEGRVYLF (SEQ ID NO: 356) (peptide)
peptide: EEGRVYLF
B13: QENSYQSRL (SEQ ID NO: 477) (peptide)
peptide: QENSYQSRL
B14: SEIEQEIGSL (SEQ ID NO: 478) (peptide)
peptide: SEIEQEIGSL
B15: EEIERFFKL (SEQ ID NO: 369) (peptide)
peptide: EEIERFFKL
B16: SEIEDSTKQVF (SEQ ID NO: 485) (peptide)
peptide: SEIEDSTKQVF
B17: TDSIHAWTF (SEQ ID NO: 324) (peptide)
peptide: TDSIHAWTF
B18: GEVHPSEMI (SEQ ID NO: 367) (peptide)
peptide: GEVHPSEMI
B19: AELDKLTSV (SEQ ID NO: 363) (peptide)
peptide: AELDKLTSV
B20: AEQDMRELTY (SEQ ID NO: 349) (peptide)
peptide: AEQDMRELTY
B21: SEDDPILQI (SEQ ID NO: 486) (peptide)
peptide: SEDDPILQI
B22: NEHPSNNW (SEQ ID NO: 329) (peptide)
peptide: NEHPSNNW
B23: HEFSSPSHL (SEQ ID NO: 342) (peptide)
peptide: HEFSSPSHL
B24: MEMQKSPVF (SEQ ID NO: 373) (peptide)
peptide: MEMQKSPVF
B25: AEDQLHHSF (SEQ ID NO: 487) (peptide)
peptide: AEDQLHHSF
B26: AETPIQNVI (SEQ ID NO: 364) (peptide)
peptide: AETPIQNVI
B27: EEATGQFHVY (SEQ ID NO: 344) (peptide)
peptide: EEATGQFHVY
B28: AETLSTIQI (SEQ ID NO: 333) (peptide)
peptide: AETLSTIQI
B29: QEMQHFLGL (SEQ ID NO: 326) (peptide)
peptide: QEMQHFLGL
B30: TEREWADEW (SEQ ID NO: 482) (peptide)
peptide: TEREWADEW
B31: KEGDLGGKQW (SEQ ID NO: 330) (peptide)
peptide: KEGDLGGKQW
B32: EEIEGKGSFTYF (SEQ ID NO: 341) (peptide)
peptide: EEIEGKGSFTYF
B33: AEIQPQTQV (SEQ ID NO: 479) (peptide)
peptide: AEIQPQTQV
B34: GECDVFKEIL (SEQ ID NO: 350) (peptide)
peptide: GECDVFKEIL
B35: ALNPYQYQY (SEQ ID NO: 347) (peptide)
peptide: ALNPYQYQY
B36: AEIQGNINHV (SEQ ID NO: 348) (peptide)
peptide: AEIQGNINHV
B37: SEFMQVIF (SEQ ID NO: 323) (peptide)
peptide: SEFMQVIF
B38: AVFDKFIRY (SEQ ID NO: 204) (peptide)
peptide: AVFDKFIRY
B39: GLASRILDAK (SEQ ID NO: 208) (peptide)
peptide: GLASRILDAK
B40: SLDGAARPK (SEQ ID NO: 205) (peptide)
peptide: SLDGAARPK
B41: KLIDLSQVMY (SEQ ID NO: 206) (peptide)
peptide: KLIDLSQVMY
B42: KVKDTPGLGK (SEQ ID NO: 203) (peptide)
peptide: KVKDTPGLGK
B43: RSFNGLLTMY (SEQ ID NO: 207) (peptide)
peptide: RSFNGLLTMY
B44: ATSGVPVYK (SEQ ID NO: 210) (peptide)
peptide: ATSGVPVYK
B45: KLAELEGALQK (SEQ ID NO: 202) (peptide)
peptide: KLAELEGALQK
B46: RTQIPMSEK (SEQ ID NO: 209) (peptide)
peptide: RTQIPMSEK
B47: SLFKDQMEL (SEQ ID NO: 392) (peptide)
peptide: SLFKDQMEL
B48: VLYDKDAVYV (SEQ ID NO: 129) (peptide)
peptide: VLYDKDAVYV
B49: GLDGSLVFL (SEQ ID NO: 127) (peptide)
peptide: GLDGSLVFL
B50: LLKEFVQRV (SEQ ID NO: 131) (peptide)
peptide: LLKEFVQRV
B51: NLWGGQGLLGV (SEQ ID NO: 130) (peptide)
peptide: NLWGGQGLLGV
B52: HIMPTVHTV (SEQ ID NO: 390) (peptide)
peptide: HIMPTVHTV
B53: ILLPYLQTL (SEQ ID NO: 393) (peptide)
peptide: ILLPYLQTL
B54: VLQPFLPSI (SEQ ID NO: 125) (peptide)
peptide: VLQPFLPSI
B55: SLIDMRGIETV (SEQ ID NO: 391) (peptide)
peptide: SLIDMRGIETV
B56: FSIPEGALVAV (SEQ ID NO: 388) (peptide)
peptide: FSIPEGALVAV
B57: FLGTTPTL (SEQ ID NO: 128) (peptide)
peptide: FLGTTPTL
B58: TLMEQPLTTL (SEQ ID NO: 389) (peptide)
peptide: TLMEQPLTTL
B59: MTLPVDAVISV (SEQ ID NO: 133) (peptide)
peptide: MTLPVDAVISV
B60: ALWLVDPLTV (SEQ ID NO: 132) (peptide)
peptide: ALWLVDPLTV
B61: FLSTVTSV (SEQ ID NO: 126) (peptide)
peptide: FLSTVTSV

For the first test, the target named is T1, HLA-B*44 (human).
T1 construct: MHC monomer made peptide-receptive by UV cleavage of a UV-sensitive ligand; also called peptide-receptive MHC class I monomer
In words: UV peptide-exchange ELISA; +++ = yield >50%. An excerpt: Candidate peptides for T cell based therapies according to the present invention were further tested for their MHC binding capacity (affinity). The individual peptide-MHC complexes were produced by UV-ligand exchange, where a UV-sensitive peptide is cleaved upon UV-irradiation, and exchanged with the peptide of interest as analyzed. Only peptide candidates that can effectively bind and stabilize the peptide-receptive MHC molecules prevent dissociation of the MHC complexes. To determine the yield of the exchange reaction, an ELISA was performed based on the detection of the light chain (β2m) of stabilized MHC complexes. The assay was performed as generally described in Rodenko et al. (Rodenko et al., 2006).
96 well MAXISorp plates (NUNC) were coated over night with 2 ug/ml streptavidin in PBS at room temperature, washed 4× and blocked for 1 h at 37° C. in 2% BSA containing blocking buffer. […] Peptide-MHC monomers of the UV-exchange reaction were diluted 100-fold in blocking buffer. Samples were incubated for 1 h at 37° C., washed four times, incubated with 2 ug/ml HRP conjugated anti-β2m for 1h at 37° C., washed again and detected with TMB solution that is stopped with […]. Absorption was measured at 450 nm.
A general note: In an ELISA, binding on a coated surface is turned into a signal by an enzyme label.
In the case of B1, the peptide exchange yield was in the range of 50 to 75%.

As to B2, the peptide exchange yield lay within 50 to 75%.

As for B3, the peptide exchange yield lay within 50 to 75%.

B4 returned a peptide exchange yield of 50 to 75%.

B5 came in with a peptide exchange yield of 50 to 75%.

Molecule B6 yielded a peptide exchange yield of 50 to 75%.

As to B7, the peptide exchange yield lay within 50 to 75%.

On to B8, for which the peptide exchange yield is 50 to 75%.

In the case of B9, the peptide exchange yield lay in the range of 50 to 75%.

In turn, B10 displayed a peptide exchange yield of 50 to 75%.

B11 returned a peptide exchange yield of 50 to 75%.

Take B12: the peptide exchange yield is 50 to 75%.

Take B13: the peptide exchange yield lay in the range of 50 to 75%.

Molecule B14 came in with a peptide exchange yield of 50 to 75%.

Molecule B15 had a peptide exchange yield of 50 to 75%.

As to B16, the peptide exchange yield lay within 50 to 75%.

On to B17, for which the peptide exchange yield was in the range of 50 to 75%.

In the case of B18, the peptide exchange yield lay within 50 to 75%.

B19 displayed a peptide exchange yield of 50 to 75%.

B20: the peptide exchange yield fell in the range of 50 to 75%.

Molecule B21 came in with a peptide exchange yield of 50 to 75%.

Turning to B22, the peptide exchange yield was in the range of 50 to 75%.

B23 yielded a peptide exchange yield of 50 to 75%.

For the molecule B24, the peptide exchange yield lay in the range of 50 to 75%.

On to B25, for which the peptide exchange yield fell in the range of 50 to 75%.

B26 registered a peptide exchange yield of 50 to 75%.

As for B27, the peptide exchange yield was in the range of 50 to 75%.

In turn, B28 registered a peptide exchange yield of 50 to 75%.

Consider B29, for which the peptide exchange yield was 50 to 75%.

B30 displayed a peptide exchange yield of 50 to 75%.

In turn, B31 showed a peptide exchange yield of 50 to 75%.

Regarding B32, the peptide exchange yield lay in the range of 50 to 75%.

Regarding B33, the peptide exchange yield lay within 50 to 75%.

Molecule B34 came in with a peptide exchange yield of 50 to 75%.

Consider B35, for which the peptide exchange yield was 50 to 75%.

With B36, the peptide exchange yield was in the range of 50 to 75%.

With B37, the peptide exchange yield was 50 to 75%.

The next test has as its target T2, HLA-A*03 (human).
T2 construct: MHC monomer made peptide-receptive by UV cleavage of a UV-sensitive ligand; also called peptide-receptive MHC class I monomer
The test is described as follows: UV peptide-exchange ELISA; ++++ = yield >75%.
Consider B38, for which the peptide exchange yield is > 75%.

In the case of B39, the peptide exchange yield was > 75%.

For the molecule B40, the peptide exchange yield was > 75%.

Regarding B41, the peptide exchange yield was > 75%.

Regarding B42, the peptide exchange yield is > 75%.

Regarding B43, the peptide exchange yield was > 75%.

Regarding B44, the peptide exchange yield is > 75%.

As for B45, the peptide exchange yield is > 75%.

In the case of B46, the peptide exchange yield was > 75%.

A further test concerns the target T3, HLA-A*02 (human).
T3 construct: MHC monomer made peptide-receptive by UV cleavage of a UV-sensitive ligand; also called peptide-receptive MHC class I monomer
In words: UV peptide-exchange ELISA; ++++ = yield >75%.
As for B47, the peptide exchange yield was > 75%.

Turning to B48, the peptide exchange yield was > 75%.

Consider B49, for which the peptide exchange yield is > 75%.

As for B50, the peptide exchange yield is > 75%.

Take B51: the peptide exchange yield was > 75%.

Regarding B52, the peptide exchange yield is > 75%.

Regarding B53, the peptide exchange yield was > 75%.

With B54, the peptide exchange yield is > 75%.

In the case of B55, the peptide exchange yield was > 75%.

Regarding B56, the peptide exchange yield is > 75%.

Consider B57, for which the peptide exchange yield was > 75%.

With B58, the peptide exchange yield is > 75%.

As to B59, the peptide exchange yield is > 75%.

For B60, the peptide exchange yield was > 75%.

With B61, the peptide exchange yield was > 75%.

The values above are taken from patent publication US11352401.
